Test results: the supplement of paper PMC9170038

How the values were obtained:
[1] = tested on: MS2 coat protein; assay: apparent KD of MS2 coat protein, switch ON state; designed switch direction (-1 OFF switch, 1 ON switch): -1; higher = weaker reporter binding; conditions: FMN input: 0 or 200 uM; Eterna round: R93 (includes R88 designs)
Outline: (§1)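 Illumina sequencing clusters served as templates for on-chip transcription of the designed RNA switches. SNAP-549-labelled MS2 coat protein was then titrated in twofold steps from 0.7 or 1.5 nM to 3 µM, allowing 0.8–1.5 h per step at first and 10–20 min per step later. The buffer held 100 mM Tris-HCl pH 7.5, 80 mM KCl and 4 mM MgCl2, without or with constant ligand. Apparent KD is the median per design of normalised cluster binding-curve fits.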

[2] = tested on: MS2 coat protein; assay: apparent KD of MS2 coat protein, switch OFF state (with FMN for OFF switches, without FMN for ON switches); designed switch direction (-1 OFF switch, 1 ON switch): -1; higher = weaker reporter binding; conditions: FMN input: 0 or 200 uM; Eterna round: R93 (includes R88 designs)
Outline: as §1

Row | Sequence | apparent KD of MS2 coat protein [1] | apparent KD of MS2 coat protein [2]
1 | AGAAAGUCAGGAUAUACGAAAAAAAAGGGAAACAACAAGGGACAUGAGGAUCACCCAUGUAGAAGGGACAAGAA [Diamond 98] | 0.0928 µM | 0.14 µM
2 | AAAAAGCUAGGAUAUACGAAAAAAAAGGGUAGAAAAAAAACACAUGAGGAUCACCCAUGUAGAAGGAGCAAAAA [Mat - Exclusion 2 - Tesla mod - D33] | 0.0457 µM | 0.0846 µM
3 | GUAGUGUGAGGAUAUGAUUAAAAGAAGGGAAAGAGACUGCAUCAGAAGGCACAUGAGGAUCACCCAUGUAUGAA [JR_Exc004_Sub1223] | 0.0343 µM | 0.0457 µM
4 | AGGAGACAUGAGGAUCACCCAUGUUAGGAUAUGAACGAAAUAAAAUAAAAAUAAAAGUUCAGAAGGAACGAAAA [Mat - Exclusion 1 - Eli mod - D10] | 0.0346 µM | 0.0566 µM
5 | CUCUUGUCAGGAUAUUGAAGAAAAGAAAAGAAAGAAAAGAACAAGAAGGGACAUGAGGAUCACCCAUGUAAGAA [EteRNA is fun!] | 0.0742 µM | 0.0607 µM
6 | AAAAAGUGAGGAUAUACAUGAGGAUCACCCAUGUGUUAAAAAAAAAGGGUGGAAGAAAGUAGAAGGCACCAAAA [Ex 3 May 50] | 0.0337 µM | 0.0229 µM
7 | AAAAGAAAAGGAUAUAAAAAGAAAAGUCAGGAUAUAGGAAACUAGAAGGGACAUGAGGAUCACCCAUGUAAAAG [Meechl Ex4 R2 m2] | 0.0359 µM | 0.0719 µM
8 | GCAGGCCAAGGAUAUACAUGAGGAUCACCCAUGUGAGAGAAAAAAGUGAGAAAGAAAAGUAGAAGGUGGUUUGG [salish99-ex3-113] | 0.0717 µM | 0.114 µM
9 | AAAAGGAAAGGAUAUGCAGACUGGGUCACCCAGAUGUAUGAACAUGAGGAUCACCCAUGUAGAAGGUUCAAAAG [Ribiquon] | 0.0366 µM | 0.0265 µM
10 | AAGAAUAGAGGAUAUACAAGGAAGAAAGAAAAGAAAAGAAAACAUGAGGAUCACCCAUGUAGAAGGCUAUAGAA [EteRNA is fun!] | 0.0309 µM | 0.0262 µM
11 | GAAGAACAUGAGGAUCACCCAUGUCAGGAUAUACAGAAGGGAAUAAUAAAAUCUGGAAGUAGAAGGGACAAGAA [Ex 1 May 46] | 0.0325 µM | 0.0493 µM
12 | AGUAGUACAGGAUAUACAUGAGGAUCACCCAUGUGAGAAUUAAGUGGCGUACCACAAAGUAGAAGGGUACUACA [Mat - Exclusion 3 - JL mod - D38] | 0.0401 µM | 0.211 µM
13 | AAAAAGUGAGGAUAUGGUAAAAAAAAAAAAAAAAAAAACCUCCAGAAGGCACAUGAGGAUCACCCAUGUAAAAA [Jolly's Folly 2 - Jieux - Exclusion 4] | 0.0758 µM | 0.0346 µM
14 | AAAGGACGAGGAUAUACAUGAGGAUCACCCAUGUAAAAAGCGUAAUAAAAGAACUUAUGUAGAAGGCGUCCAAA [Meechl Ex3 2 R2 v1] | 0.045 µM | 0.0668 µM
15 | AGAAAUGUAGGAUAUACAUGAGGAUCACCCAUGUGGGAGGAGGAGCAAACAAGACGAGGUAGAAGGACAACGAC [JR_Exc003-Sub903] | 0.0735 µM | 0.0792 µM
16 | GAUCAGCUAGGAUAUACAUUAAUCCGAAAUGAGAAGAAAGAACAUGAGGAUCACCCAUGUAGAAGGAGCCAGUA [Usinisat] | 0.0337 µM | 0.0321 µM
17 | GAAAAGUUAGGAUAUACAGAUAAAAAAACGAAAAAAAAUCUGUAGAAGGAACAUGAGGAUCACCCAUGUAAAAG [Mat - Exclusion 4 - Mayanna - D103] | 0.0347 µM | 0.0308 µM
18 | AUGUAGGGAGGAUAUACAUAGAUACAGAUUCAUGUGGAACUACAUGAGGAUCACCCAUGUAGAAGGCCCUAAAA [Mat - Same state - Mayanna Mod - D125] | 0.0274 µM | 0.117 µM
19 | CCUGGCUUAGGAUAUACAGGAACCGGGAACCCGGAAGUGAAACAUGAGGAUCACCCAUGUAGAAGGAAGAAAGC [Leusanzaus] | 0.0239 µM | 0.0191 µM
20 | AAAUAGUUAGGAUAUACAUGAGGAUCACCCAUGUGCACUUAUGGAGAAUAGUGUAAUGGUAGAAGGGACUAAAA [EX2 Malc#23] | 0.0821 µM | 0.0946 µM

Row | Sequence | apparent KD of MS2 coat protein [1] | apparent KD of MS2 coat protein [2]
21 | AGAAAACAUGAGGAUCACCCAUGUGAGGAUAUCGAAAAGAAAAGAAAAGAAAGAAGAAUGAGAAGGCACAAGAA [Khaba] | 0.0295 µM | 0.0281 µM
22 | GGUUGGCGAGGAUAUACAUGAGGAUCACCCAUGUGAGAGAAAAAAGUGAGAAAGAAAAGUAGAAGGCGCUGACC [salish99-ex3-04] | 0.0457 µM | 0.242 µM
23 | AACUGACAUGAGGAUCACCCAUGUCAGGAUAUGACAUCGAAAAAUAAAUAAAUCGUUGUCAGAAGGGACAUGAA [Design 76: Sub-opt S] | 0.0163 µM | 0.0149 µM
24 | GAAAAACAUGAGGAUCACCCAUGUAAGGAUAUGCUAAAAAACGCAAAAAAAGCGAAUAGCAGAAGGUACAAAAA [Mat - Exclusion 1 - Eli mod - D83] | 0.0206 µM | 0.0334 µM
25 | AAAAAUUGAGGAUAUACAUGAGGAUCACCCAUGUUAGACCUAAAAAAAGGGAAAGAAAGUAGAAGGCAAUAAAA [Ex 3 May 28] | 0.0146 µM | 0.0188 µM
26 | AAAAAACAUGAGGAUCACCCAUGUAAGGAUAUGCUCGUGCGAAAAGCACAAAAAAAGAGCAGAAGGUACAAAAA [66%, Wbt, 39] | 0.0152 µM | 0.0333 µM
27 | UCCUCACAUGAGGAUCACCCAUGUGAGGAUAUCUGAAAAAAAAAAAAAAAAAAAAAUCAGAGAAGGCACAUGGG [Design 11: Super Stable Short Helix 1] | 0.0371 µM | 0.00455 µM
28 | AAGAACGAAGGAUAUACAAAAUAAAAGAAAAGAAAGAAAGAACAUGAGGAUCACCCAUGUAGAAGGUCGAAGAA [Awybre Hor I] | 0.0105 µM | 0.0258 µM
29 | GCUUGGGUAGGAUAUACAUGAGGAUCACCCAUGUGAGAGAAAAAAGUGAGAAAGAAAAGUAGAAGGACCUGAGG [salish99-ex3-107] | 0.123 µM | 0.244 µM
30 | CGUCCACAUGAGGAUCACCCAUGUUAGGAUAUCUAUACUAAAUACAAAACCCAAGUCAAGAGAAGGAGCAGGGC [Teteeresve] | 0.0139 µM | 0.012 µM
31 | AAAAAACAUGAGGAUCACCCAUGUAAGGAUAUGCAAGCAAGAAGAAAGAACAGAAAAAGCAGAAGGUACACACA [Amethyst 73] | 0.0224 µM | 0.025 µM
32 | CUCAAGUUAGGAUAUGAAAGAAAAGAAGAGAAAGAAAAGAAUCAGAAGGAACAUGAGGAUCACCCAUGUAAGAA [EteRNA is fun!] | 0.0297 µM | 0.0195 µM
33 | AAAAAGUGAGGAUAUACGUUGAAAAAAAAAAAAAAAAAGGCGUAGAAGGCACAUGAGGAUCACCCAUGUAAAAA [Ex4 Malc#5] | 0.056 µM | 0.0774 µM
34 | AAAAGACAUGAGGAUCACCCAUGUCAGGAUAUGACUUGAAAAAAAAAAAAAAAACAUGUCAGAAGGGACAUGAA [Design 45: Sub-opt D] | 0.0206 µM | 0.0196 µM
35 | AAAUAACAUGAGGAUCACCCAUGUUAGGAUAUCUAAAUGGUGUAAACACCAGAAGAUGAGAGAAGGGACGUGGA [Enlalees] | 0.0179 µM | 0.0251 µM
36 | AUAAACUGAGGAUAUACAUGAGGAUCACCCAUGUAAAAAAAAAAAUGAUCCUCAAAAAGUAGAAGGCAGAAUAA [JR_Exc003_Sub016] | 0.0234 µM | 0.0358 µM
37 | AGAAAACAUGAGGAUCACCCAUGUGAGGAUAUCGAUGUCCAAAAAAAAGUGCGGGACUCGAGAAGGCACUUGGG | 0.0389 µM | 0.0337 µM
38 | GAAUGACUAGGAUAUACAUGAGGAUCACCCAUGUGUAUAAAUAAAUACACAAAAGAAAGUAGAAGGAGUCAAAG [Mat - Exclusion 3 - Mayanna mod - D124] | 0.0208 µM | 0.0832 µM
39 | GGAUGUGAAGGAUAUACAUGAGGAUCACCCAUGUGAGAGAAAAAAGUGAGAAAGAAAAGUAGAAGGUCGUGUCG [salish99-ex3-86] | 0.0349 µM | 0.0369 µM
40 | AGCUAGUGAGGAUAUACGAACAAGUCAACGGACUGUAAGGGACAUGAGGAUCACCCAUGUAGAAGGCACUAGCA [Diamond 58] | 0.0294 µM | 0.148 µM
